Measurements published in the supplement of paper PMC9170038.

Tested on: MS2 coat protein
Experiment: apparent KD of MS2 coat protein; designed switch direction (-1 OFF switch, 1 ON switch): -1; higher = weaker reporter binding
In short: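 SNAP-549-labelled MS2 coat protein was titrated, doubling from 0.7 or 1.5 nM to 3 µM, over designed RNA switches transcribed on Illumina chips by stalled E. coli RNA polymerase. Runs were done without input, with 200 uM small-molecule ligand, or with an oligonucleotide input. Apparent KD is the per-design median over clusters of curve-fitted normalised fluorescence.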

[1] = Eterna round: R95, input ligand: FMN 200 uM
[2] = Eterna round: R95, input ligand: microRNA oligo, concentration not stated
[3] = Eterna round: R95, input ligand: none
[4] = input ligand: microRNA oligo, concentration not stated

Sequence | apparent KD of MS2 coat protein [1] | apparent KD of MS2 coat protein [2] | apparent KD of MS2 coat protein [3] | apparent KD of MS2 coat protein [4] | apparent KD of MS2 coat protein (input ligand: FMN 200 uM) | apparent KD of MS2 coat protein (input ligand: none)
UUGAGCAGACGGAGAUCCAACAUGAGGAUCACCCAUGUCUCAUAAGCUUUUUGUUCAUCUUAUUGUACCUUGGUGCA [Mat - Sensor v3 - turn-off var 1 - JL Mod - D24] (puzzle: Sensor v3, turn-off variant 1) | 71.3 nM | 17 nM | 64.1 nM | – | – | –
UUGAUACAUACCUCCAUAAACAUGAGGAUCACCCAUGUAAGUGAGGAUAUAGAUUGUUUAGUAUACUAGAAGGCACUUAGAUAU [JR_ExcNG3_Sub045] (Eterna round: R96, puzzle: Exclusion NG 3) | – | – | – | 9.11 nM | – | –
UUGAUUAGAAAGGAUAUCGGAUACUUGAGAGUCCGAGAAGGUUUUACAUGAGGAUCACCCAUGUGGCAUCCUCG [Eternabot (L1) Solution 99] (Eterna round: R97, puzzle: Exclusion 6) | – | – | – | – | 476 nM | 805 nM
UUGAUUCAUUCCUCCAUAAACAUGAGGAUCACCCAUGUAAGUGAGGAUAUAGUUUGUUUAGUAUACUAGAAGGCACUUAGAUAU [JR_ExcNG3_Sub046] (Eterna round: R96, puzzle: Exclusion NG 3) | – | – | – | 9.61 nM | 12.7 nM | 12.6 nM
UUGCCGCGAGGAUAUAUAGACGGGUUCAAUACGUGUCUCGGACUUGAGGAUCACCCAAGUAGAAGGCUUUUUAU [LRO-Excl2-12-mod _r4_621 by salish99] (Eterna round: R97, puzzle: Exclusion 2) | – | – | – | – | 15.5 nM | 14.7 nM
UUGCCGCGAGGAUAUGCAGACGGGUUCAAUACGUGUCUCGGACUUGAGGAUCACCCAAGUAGAAGGCUUUUUAU [LRO-Excl2-13-mod _r4_621 by salish99] (Eterna round: R97, puzzle: Exclusion 2) | – | – | – | – | 16.2 nM | 14.8 nM
UUGCGGAGAGGAUAUACAUAGGCGGAUUGGUAGACUCAAAUACAUGAGGAUCACCCAUGUAGAAGGCUUGAUCA [Eternabot (L2) Solution 22] (Eterna round: R97, puzzle: Exclusion 2) | – | – | – | – | 144 nM | 50.4 nM
UUGCUACCUUGGUGCUCUACAAGCUUUUUGCUCGUUUUAACAUGAGGAUCACCCAUGUCUAGUGGAUCUGAUCGGGU [JL ViennaUCT Isreen mod 2] (puzzle: Sensor v3, turn-off variant 2) | 91.3 nM | 212 nM | 97.9 nM | – | – | –
UUGCUCCCUUAGUACUCUACAAGCUUUUUGUUCGUUUUAACAUGAGGAUCACCCAUGUCUAGUGGAUCUGAUCGGGU [JL ViennaUCT Isreen mod 4] (puzzle: Sensor v3, turn-off variant 2) | 136 nM | 226 nM | 165 nM | – | – | –
UUGCUUUCUUAGUACUCUACAAGUUUUUUGUUCGUUUUAACAUGAGGAUCACCCAUGUCUAGUGGAUCUGAUCGGGU [JL ViennaUCT Isreen mod 6] (puzzle: Sensor v3, turn-off variant 2) | 146 nM | 263 nM | 173 nM | – | – | –
UUGGAUAAUGUAGGAUAUGCAAGGCGAACCUAAGCAGAAGGACAUGAGGAUCACCCAUGUAAUGCGGUCUGCGUACAGAUCGCA [12th something] (Eterna round: R96, puzzle: Exclusion NG 1) | – | – | – | 29 nM | 79 nM | 22.1 nM
UUGGCAGGUUUUUUGUUUGACAUGAGGAUCACCCAUGUUGCGUGGGUUGUGGGUGGGCGGUGUUUAUUUAUGGUUCU [-16.5, -38.6 kcal, A 12%] (Eterna round: R97, puzzle: Sensor, turn-off variant 1) | – | – | – | – | 43.1 nM | 48.4 nM
UUGGCAGGUUUUUUGUUUGACAUGAGGAUCACCCAUGUUGCGUGGGUUGUGUGUGUGCGGUGUAUAUAUAUGGUUCU [-19.3, -40.7 kcal, A 14%] (Eterna round: R97, puzzle: Sensor, turn-off variant 1) | – | – | – | – | 203 nM | 364 nM
UUGGUACUGGUAGGAUAUCCGUUGGAAACCGUCGGAGAAGGACCACAGUCACUGGGUCUUUGUCAAGUGGAGUGGAAGAACCAU [pwkr exNG1 F6.24] (Eterna round: R96, puzzle: Exclusion NG 1) | – | – | – | 221 nM | 224 nM | 227 nM
UUGUAGCAGGCCUUCGAGUACAUGAGGAUCACCCAUGUCGUGCCUGAAAUCUCAGAGACAGGUGGCUCGUCUUAGGC [Eternabot (L1) Solution 32] (Eterna round: R97, puzzle: Sensor, turn-off variant 1) | – | – | – | – | 21.2 nM | 16.9 nM
UUGUCGGCAGGAUAUACAUGAGGAUCACCCAUGUAAAUUUUUCGUUUAACUUGAAUGUGUAGAAGGGCCAUGUA [Ex3 #70] (Eterna round: R97, puzzle: Exclusion 3) | – | – | – | – | 28.2 nM | 25.2 nM
UUGUCGUGUGUAGGAUAUCGUUGGCGUUCGCCGCGAGAAGGACAUGAGGAUCACCCAUGUGCGUCAGGGUCGUCCACAGGUGAU [-27/-25 Kcal and A 19%] (Eterna round: R96, puzzle: Exclusion NG 1) | – | – | – | 281 nM | 663 nM | 371 nM

Sequence | apparent KD of MS2 coat protein [1] | apparent KD of MS2 coat protein [2] | apparent KD of MS2 coat protein [3] | apparent KD of MS2 coat protein [4] | apparent KD of MS2 coat protein (input ligand: FMN 200 uM) | apparent KD of MS2 coat protein (input ligand: none)
UUGUGCACGCUGCGGUCCUACAUGAGGAUCACCCAUGUGGUCUGGUGGCGUGGGUCGCCGGACUUGGCUCGUCUUGG [salish99_S_TOV1_R5_026] (Eterna round: R97, puzzle: Sensor, turn-off variant 1) | – | – | – | – | 16.9 nM | 16.9 nM
UUGUGGGUACGAAGGUGUAGUUUGAGCGUACGUUCUGUAACAUGAGGAUCACCCAUGUCGCUUUUUGCUCGUCUUAU [JR_SV3TOV2_Sub036] (puzzle: Sensor v3, turn-off variant 2) | 24.7 nM | 68.2 nM | 24.8 nM | – | – | –
UUGUUACAUGAGGAUCACCCAUGUGAGGAUAUGGUUCAGUAAUGUAAUGUAAAGUAAUCCAGAAGGCACAUGUU [1st #26] (Eterna round: R97, puzzle: Exclusion 1) | – | – | – | – | 1290 nM | 756 nM
UUGUUAUAUGUAGGAUAUGCGUGUUAUUGUUAGGCAGAAGGACAUGAGGAUCACCCAUGUAUGUUGUUGUUAUAUAUUAUAUAU [Title] (Eterna round: R96, puzzle: Exclusion NG 1) | – | – | – | 21.2 nM | 41.9 nM | 34.4 nM
UUGUUCCAUUAUGAGAUCCACAUGAGGAUCACCCAUGUAGGAGUAACAAGCUUUGCUCGAUCUAUUUCAUGCUUCUG [Eternabot (L1) Solution 40] (Eterna round: R97, puzzle: Sensor, turn-off variant 1) | – | – | – | – | 65.8 nM | 80.6 nM
UUGUUCCGUGUAGGAUAUUGGCCUUCCUCGGGCCGAGAAGGACAUGAGGAUCACCCAUGUAUGCUAUUAUCGCGCGUGGCGCAC [Design 95] (Eterna round: R96, puzzle: Exclusion NG 1) | – | – | – | 22.4 nM | 279 nM | 39.9 nM
UUGUUCGAGCGGAGUUCUCACAUGAGGAUCACCCAUGUGCUCGUCUUGUGUGGUUCUGUGGCGUGGUUCGCGGUGCC [Sensor, turn-off variant 1] (Eterna round: R97, puzzle: Sensor, turn-off variant 1) | – | – | – | – | 237 nM | 292 nM
UUGUUGUAUGUAGGAUAUGCAUAUUAUUAUUAUGCAGAAGGACAUGAGGAUCACCCAUGUAUAUUAUUAUUAUAUAUUAUAUAU [Title] (Eterna round: R96, puzzle: Exclusion NG 1) | – | – | – | 23.5 nM | – | –
UUGUUGUAUGUAGGAUAUGCAUAUUAUUAUUAUGCAGAAGGACAUGAGGAUCACCCAUGUAUAUUAUUAUUAUAUGUUAUAUAU [Title] (Eterna round: R96, puzzle: Exclusion NG 1) | – | – | – | 20 nM | – | –
UUGUUGUAUGUAGGAUAUGCAUAUUAUUAUUAUGCAGAAGGACAUGAGGAUCACCCAUGUAUGUUAUUAUUAUAUGUUAUAUAU [Title] (Eterna round: R96, puzzle: Exclusion NG 1) | – | – | – | 21.3 nM | – | –
UUGUUGUAUGUAGGAUAUGCGUGUUAUUAUUAUGCAGAAGGACAUGAGGAUCACCCAUGUGUAUUAUUAUUAUAUAUUAUAUAU [Title] (Eterna round: R96, puzzle: Exclusion NG 1) | – | – | – | 14.1 nM | – | –
UUGUUGUGUGUAGGAUAUGCGUGUUAUUAUUAUGCAGAAGGACAUGAGGAUCACCCAUGUGUAUUGUUAUUAUAUAUUAUAUAU [Title] (Eterna round: R96, puzzle: Exclusion NG 1) | – | – | – | 15.6 nM | – | –
UUGUUUUUCACAGGAUAUCGCCUCUUAUUACAUGAGGAUCACCCAUGUUUAUUUUGUUACAUGUUCGAGAAGGGUGUAGUCUUU [JR_ExcNG2_Sub047] (Eterna round: R96, puzzle: Exclusion NG 2) | – | – | – | 368 nM | 586 nM | 475 nM
UUUAAAACAUAGGAUAUCGAAAUAAUCAUUUAACGAGAAGGAUGAACAUGAGGAUCACCCAUGUGGUAUCAUGG [Mat - Exclusion 6 - JL Mod - D18] (puzzle: Exclusion 6) | 364 nM | 230 nM | 409 nM | – | – | –
UUUAAACAUGAGGAUCACCCAUGUUAGGAUAUACGCAUGCAGACACACACGGAUGCAAGUAGAAGGAACCAUGC [Design #7] (Eterna round: R97, puzzle: Exclusion 1) | – | – | – | – | 23.6 nM | 22.9 nM
UUUAACAAGCCAGAUCCUAACAUGAGGAUCACCCAUGUGCUCGUCUGAUUUUGUACUAUCAUGUGAGUGAUAGUAUU [Level Boss var2-04] (puzzle: Sensor v3, turn-off variant 1) | 174 nM | 683 nM | 308 nM | – | – | –
